According to the supplement of paper PMC10567573:

B1: MYBL2 (parent)
chain: FPNRTDQQCQYRWLRVLNPDLVKG

Variants of: B1
Assay: protein stability index of a GFP-peptide fusion (GPS, HEK-293T) (PSI 1-6); higher = more stable
Conditions: c terminus: a fixed tail appended
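Further: lentivirally expressed fusions sorted by FACS into six bins by GFP to DsRed ratio, PSI derived from sequencing read proportions per bin multiplied by bin number.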

| Variant | protein stability index |
| --- | --- |
| C9L | 2.26 |
| C9P | 2.5 |
| C9Q | 2.24 |
| C9R | 2.85 |
| C9E | 1.86 |
| C9F | 2.38 |
| C9H | 2.88 |
| C9A | 2 |
| C9Y | 2.49 |
| C9K | 2.76 |
| C9M | 2.45 |
| C9V | 2.05 |
| C9I | 2.16 |
| C9S | 2.45 |
| C9W | 2.51 |
| C9T | 2.9 |
| L17Y | 1.34 |
| L17A | 2.41 |
| L17F | 1.41 |
| L17E | 2.32 |
| L17P | 2.56 |
| L17M | 1.95 |
| L17R | 2.28 |
| L17C | 1.79 |

| Variant | protein stability index |
| --- | --- |
| L17D | 1.91 |
| L17T | 1.63 |
| L17K | 2.47 |
| L17S | 2.78 |
| L17N | 2.28 |
| R12F | 2.25 |
| R12G | 1.59 |
| R12L | 1.45 |
| R12S | 2.25 |
| R12N | 1.69 |
| R12T | 1.66 |
| R12Y | 2.46 |
| R12D | 1.19 |
| R12E | 1.74 |
| R12W | 1.95 |
| R12A | 2.75 |
| R12P | 1.96 |
| R12I | 1.97 |
| G24S | 1.68 |
| G24L | 2.35 |
| G24T | 1.87 |
| G24A | 1.41 |
| G24W | 1.55 |
| G24H | 1.41 |

| Variant | protein stability index |
| --- | --- |
| G24R | 1.74 |
| G24I | 1.43 |
| G24P | 2.26 |
| G24N | 2.44 |
| G24F | 1.85 |
| G24M | 2.18 |
| D6P | 1.81 |
| D6Y | 1.61 |
| D6S | 1.89 |
| D6G | 1.51 |
| D6H | 1.94 |
| D6Q | 2.91 |
| D6W | 1.75 |
| D6M | 1.27 |
| D6C | 1.45 |
| D6K | 2.06 |
| D6E | 1.61 |
| D6I | 2.07 |
| D6L | 1.97 |
| D6F | 2.36 |
| W13I | 1.91 |
| W13C | 2.01 |
| W13N | 2.81 |
| W13E | 3.26 |

| Variant | protein stability index |
| --- | --- |
| W13D | 2.98 |
| W13G | 3.56 |
| W13Y | 2.26 |
| W13S | 3.03 |
| W13A | 2.59 |
| W13F | 2.75 |
| W13P | 3.71 |
| W13M | 2.27 |
| W13T | 2.52 |
| P2E | 2.67 |
| P2V | 3.52 |
| P2D | 2.06 |
| P2H | 1.86 |
| P2S | 2.3 |
| P2K | 2.3 |
| P2F | 1.69 |
| P2W | 1.61 |
| P2T | 1.81 |
| P2G | 1.88 |
| P2M | 1.63 |
| V22K | 1.64 |
| V22T | 1.95 |
| V22N | 2.01 |
| V22C | 1.79 |

| Variant | protein stability index |
| --- | --- |
| V22W | 2.11 |
| V22D | 2.02 |
| V22Q | 1.54 |
| V22R | 1.66 |
| V22F | 1.59 |
| V22M | 2.08 |
| V22Y | 2.01 |
| V22S | 2.25 |
| V22P | 1.83 |
| V22A | 1.71 |
| Q10L | 2.34 |
| Q10E | 2.23 |
| Q10H | 2.35 |
| Q10Y | 1.79 |
| Q10I | 1.79 |
| Q10D | 2.04 |
| Q10G | 1.48 |
| Q10S | 2.48 |
| Q10R | 1.52 |
| Q10M | 1.47 |
| Q10W | 2.4 |
| Q10V | 1.81 |
| Q10C | 2.83 |
| Q10K | 1.88 |

| Variant | protein stability index |
| --- | --- |
| L14Q | 2.08 |
| L14S | 2.35 |
| L14C | 2.02 |
| L14V | 2.21 |
| L14I | 2.03 |
| L14D | 2.22 |
| L14W | 1.4 |
| L14G | 1.48 |
| L14F | 1.51 |
| L14M | 2.12 |
| L14T | 1.64 |
| L14P | 2.05 |
| L14E | 2.28 |
| L14N | 2.46 |
| D20P | 2.35 |
| D20V | 1.14 |
| D20L | 1.7 |
| D20F | 1.68 |
| D20W | 2.27 |
| D20G | 1.6 |
| D20I | 1.74 |
| D20Y | 1.76 |
| D20K | 2.06 |
| D20T | 1.54 |

| Variant | protein stability index |
| --- | --- |
| D20S | 2.24 |
| D20H | 2.06 |
| Y11H | 2.24 |
| Y11R | 1.97 |
| Y11E | 3.11 |
| Y11C | 2.29 |
| Y11K | 2.23 |
| Y11V | 2.02 |
| Y11G | 2.31 |
| Y11Q | 1.85 |
| Y11D | 2.91 |
| Y11T | 2.36 |
| Y11P | 2.13 |
| Y11W | 1.66 |
| Y11I | 2.04 |
| R4H | 2.47 |
| R4A | 1.99 |
| R4F | 2.22 |
| R4C | 1.51 |
| R4I | 1.56 |
| R4N | 1.94 |
| R4L | 2.65 |
| R4P | 2.64 |
| R4D | 2.27 |

| Variant | protein stability index |
| --- | --- |
| R4S | 1.95 |
| R4T | 2.02 |
| R4K | 2.11 |
| R4M | 2.2 |
| R4Q | 2.19 |
| R4E | 2.51 |
| R4W | 2.23 |
| V16P | 2.72 |
| V16I | 1.57 |
| V16H | 2.39 |
| V16S | 2.2 |
| V16F | 1.81 |
| V16R | 1.56 |
| V16D | 2.99 |
| V16E | 2.44 |
| V16T | 2.13 |
| V16C | 1.97 |
| V16G | 2.12 |
| V16Y | 1.72 |
| V16L | 1.77 |
| V16Q | 2.46 |
| Q8W | 1.97 |
| Q8E | 2.01 |
| Q8S | 1.83 |

| Variant | protein stability index |
| --- | --- |
| Q8C | 1.42 |
| Q8H | 2.37 |
| Q8I | 2.01 |
| Q8T | 1.82 |
| Q8A | 1.38 |
| Q8N | 2 |
| Q8K | 1.97 |
| Q8Y | 1.88 |
| Q8G | 1.34 |
| Q8F | 1.71 |
| Q8V | 2.05 |
| Q8P | 2.09 |
| F1Q | 2.76 |
| F1L | 2.08 |
| F1D | 3.24 |
| F1M | 2.37 |
| F1I | 2.6 |
| F1V | 2.31 |
| F1N | 2.47 |
| F1Y | 1.95 |
| F1A | 2.54 |
| F1C | 2.24 |
| F1R | 2.79 |
| F1H | 2.44 |

| Variant | protein stability index |
| --- | --- |
| F1G | 3.23 |
| F1K | 2.14 |
| F1S | 2.51 |
| F1E | 2.56 |
| F1W | 2 |
| F1P | 3 |
| F1T | 2.75 |
| Q7T | 1.72 |
| Q7R | 2.63 |
| Q7Y | 1.61 |
| Q7C | 1.94 |
| Q7D | 2.3 |
| Q7E | 2.15 |
| Q7P | 2.17 |
| Q7F | 1.67 |
| Q7H | 2.05 |
| Q7L | 1.69 |
| Q7S | 1.82 |
| Q7M | 1.96 |
| Q7G | 2.96 |
| Q7N | 2.38 |
| N18F | 2.73 |
| N18L | 2.74 |
| N18V | 1.61 |

| Variant | protein stability index |
| --- | --- |
| N18Q | 1.97 |
| N18S | 2.17 |
| N18D | 2.09 |
| N18G | 1.6 |
| N18M | 1.75 |
| N18W | 2.05 |
| N18T | 2.19 |
| N18K | 1.68 |
| N18P | 1.98 |
| N18Y | 2.16 |
| P19I | 2.11 |
| P19A | 1.81 |
| P19Q | 1.94 |
| P19H | 2.22 |
| P19C | 2.5 |
| P19Y | 2.02 |
| P19L | 1.76 |
| P19F | 1.45 |
| P19N | 2.01 |
| P19R | 1.84 |
| P19K | 2.36 |
| P19M | 2.2 |
| P19S | 2.06 |
| P19E | 1.85 |

| Variant | protein stability index |
| --- | --- |
| K23V | 1.4 |
| K23N | 2.11 |
| K23L | 1.64 |
| K23A | 1.22 |
| K23H | 1.7 |
| K23G | 1.8 |
| K23D | 1.97 |
| K23P | 2.06 |
| K23W | 1.27 |
| K23E | 1.89 |
| K23T | 1.59 |
| K23S | 1.26 |
| K23Y | 1.38 |
| K23I | 1.95 |
| T5I | 2.29 |
| T5V | 1.8 |
| T5G | 1.53 |
| T5P | 2.05 |
| T5Y | 1.95 |
| T5F | 1.49 |
| T5D | 1.98 |
| T5K | 2.29 |
| T5H | 1.74 |
| T5L | 1.64 |

| Variant | protein stability index |
| --- | --- |
| T5A | 2.73 |
| T5E | 2.29 |
| L21F | 2.26 |
| L21N | 2.37 |
| L21K | 2.01 |
| L21S | 2.17 |
| L21A | 1.88 |
| L21P | 2.83 |
| L21H | 1.48 |
| L21T | 2.26 |
| L21D | 2.12 |
| L21G | 1.66 |
| L21C | 2.18 |
| L21I | 2.85 |
| L21V | 2.26 |
| L21M | 2.27 |
| R15F | 2.36 |
| R15Y | 2.14 |
| R15V | 2.2 |
| R15T | 1.45 |
| R15S | 2 |
| R15G | 2.18 |
| R15L | 1.98 |
| R15W | 2.96 |

| Variant | protein stability index |
| --- | --- |
| R15I | 2.25 |
| R15A | 1.45 |
| R15D | 2.48 |
| R15P | 1.92 |
| R15Q | 2.15 |
| R15E | 2.44 |
| R15K | 1.31 |
| R15C | 2.19 |
| N3E | 1.96 |
| N3V | 1.91 |
| N3L | 1.94 |
| N3F | 1.63 |
| N3A | 2.27 |
| N3M | 1.72 |
| N3W | 1.31 |
| N3D | 1.83 |
| N3S | 1.78 |
| N3P | 1.93 |
| N3R | 2.1 |
| N3Y | 1.87 |
| N3I | 1.82 |
| N3H | 1.98 |
